In article PMC3853347:

Columns and labels:
[1] = target: Flag-TDRD3 Tudor-deletion mutant (UniProt Q9H7E2); assay: co-IP
[2] = target: Flag-TDRD3 CTD-deletion mutant; assay: co-IP
Flag-TDRD3 CTD-deletion mutant, sequence (Q9H7E2 whole entry, stated change not applied): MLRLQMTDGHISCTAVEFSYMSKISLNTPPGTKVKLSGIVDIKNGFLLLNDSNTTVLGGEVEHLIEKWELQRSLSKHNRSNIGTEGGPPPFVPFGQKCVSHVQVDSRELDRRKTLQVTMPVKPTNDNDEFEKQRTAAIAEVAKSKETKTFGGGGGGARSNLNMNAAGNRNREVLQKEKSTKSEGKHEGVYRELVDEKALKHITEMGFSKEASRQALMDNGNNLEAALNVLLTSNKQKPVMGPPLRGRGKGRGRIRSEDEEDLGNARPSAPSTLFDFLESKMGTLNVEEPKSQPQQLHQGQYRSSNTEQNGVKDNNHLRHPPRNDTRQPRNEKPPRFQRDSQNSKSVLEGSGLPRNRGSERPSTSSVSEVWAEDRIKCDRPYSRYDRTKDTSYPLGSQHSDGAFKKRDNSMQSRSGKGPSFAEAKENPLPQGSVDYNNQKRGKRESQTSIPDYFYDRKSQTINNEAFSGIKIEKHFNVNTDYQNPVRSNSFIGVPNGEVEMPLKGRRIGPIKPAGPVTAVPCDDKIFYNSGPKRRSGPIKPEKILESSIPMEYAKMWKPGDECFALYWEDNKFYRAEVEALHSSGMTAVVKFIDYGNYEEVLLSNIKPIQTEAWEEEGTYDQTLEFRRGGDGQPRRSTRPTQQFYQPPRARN

Flag-TDRD3 Tudor-deletion mutant, sequence (Q9H7E2 whole entry, stated change not applied): as above
FXR2, endogenous human, sequence (P51116 whole entry): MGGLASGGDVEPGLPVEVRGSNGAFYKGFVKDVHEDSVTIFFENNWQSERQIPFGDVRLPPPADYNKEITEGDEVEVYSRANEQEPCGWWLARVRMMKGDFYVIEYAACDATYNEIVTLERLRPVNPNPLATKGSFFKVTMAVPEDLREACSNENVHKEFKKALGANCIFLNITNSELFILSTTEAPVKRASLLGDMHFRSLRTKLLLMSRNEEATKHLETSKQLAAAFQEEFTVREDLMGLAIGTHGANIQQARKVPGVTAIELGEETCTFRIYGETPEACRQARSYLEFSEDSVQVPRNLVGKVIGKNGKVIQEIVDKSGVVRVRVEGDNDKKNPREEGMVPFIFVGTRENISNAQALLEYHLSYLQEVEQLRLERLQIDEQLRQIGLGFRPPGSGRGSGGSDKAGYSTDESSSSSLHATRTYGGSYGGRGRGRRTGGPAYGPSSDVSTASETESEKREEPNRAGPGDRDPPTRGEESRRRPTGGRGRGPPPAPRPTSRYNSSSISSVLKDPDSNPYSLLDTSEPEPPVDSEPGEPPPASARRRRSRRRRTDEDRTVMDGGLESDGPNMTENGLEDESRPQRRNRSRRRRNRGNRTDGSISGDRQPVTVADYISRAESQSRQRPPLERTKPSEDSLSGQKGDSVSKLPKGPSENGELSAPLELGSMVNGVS
FXR1, endogenous human, sequence (P51114 whole entry): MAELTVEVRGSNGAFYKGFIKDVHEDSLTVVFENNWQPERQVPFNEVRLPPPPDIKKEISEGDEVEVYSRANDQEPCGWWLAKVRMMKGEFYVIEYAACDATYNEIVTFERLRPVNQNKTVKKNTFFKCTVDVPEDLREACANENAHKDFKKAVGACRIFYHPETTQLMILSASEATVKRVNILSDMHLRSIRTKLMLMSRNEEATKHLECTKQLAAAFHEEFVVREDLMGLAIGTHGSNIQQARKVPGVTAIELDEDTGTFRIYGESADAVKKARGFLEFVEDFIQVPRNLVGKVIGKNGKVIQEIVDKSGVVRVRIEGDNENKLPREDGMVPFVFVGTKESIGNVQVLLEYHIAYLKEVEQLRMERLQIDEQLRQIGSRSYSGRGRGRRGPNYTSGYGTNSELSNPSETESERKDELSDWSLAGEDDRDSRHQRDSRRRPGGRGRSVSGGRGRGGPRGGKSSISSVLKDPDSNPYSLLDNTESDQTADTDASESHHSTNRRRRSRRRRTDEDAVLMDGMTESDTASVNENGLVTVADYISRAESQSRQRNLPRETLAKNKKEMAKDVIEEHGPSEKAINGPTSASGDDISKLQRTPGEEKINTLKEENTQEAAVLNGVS

| Substance | reduction of the co-immunoprecipitated amount against wild-type TDRD3 [1] [%] | reduction of the co-immunoprecipitated amount against wild-type TDRD3 [2] [%] |
| --- | --- | --- |
| FXR2, endogenous human (from UniProt P51116 1-673) (natural protein) | 30 | 80 |
| FMRP, endogenous human (from UniProt Q06787 1-632) (natural protein) | 30 | 80 |
| FXR1, endogenous human (from UniProt P51114 1-621) (natural protein) | 30 | 80 |
